{"source": "paper PMC13190736", "key": {"[1]": {"molecular_target": "staphylococcal enterotoxin C (SEC-2), wild type (Staphylococcus aureus) (UniProt P34071)", "experiment": "ELISA"}, "[2]": {"molecular_target": "staphylococcal enterotoxin C (SEC-2), wild type (Staphylococcus aureus) (UniProt P34071)", "experiment": "SPR"}}}
{"binder": "Nb C107 (VHH) VHH: QVQLVESGGGLVQPGGSLRLSCAPSGSTSGIYASGWYRQVPGKPQEWLADISRGGSTKYADSVKGRFTISRDNAKNTVYLQMNSLKPEDTATYYCRVIDTLGAEYRGQGTQVTVSS", "values": [{"measurement": "EC50", "setting": "[1]", "value": 2.5, "unit": "nM"}]}
{"binder": "Nb C112 (VHH) VHH: QVQLVESGGGLVQAGGSLRLSCTASERMYGIEMGWFRQAPGKERELVAAITWSGVVSHLQESVKGRFTISRDNPKKTVYLQMNSLKPEDTATYYCAGHRLQWASGYTRHDYGSWGQGTQVTVSS", "values": [{"measurement": "Kd", "setting": "[2]", "value": 0.179, "unit": "nM"}]}
